Data as given in patent publication US8586570B2, “Sox-based kinase sensor” (Massachusetts Institute of Technology, priority 2006, dated 2013).

What was measured:
[1] = Fluorescence increase, phosphopeptide vs unphosphorylated peptide at 485 nm; format: physicochemical; settings: phosphopeptide / unphosphorylated peptide intensity at 485 nm, generally 10 mM Mg2+
Experimental: Fluorescence experiments were performed on a Fluoromax 3 from Jobin Yvon. 5 nm emission and excitation slit widths were used. For all experiments, an excitation wavelength of 360 nm was used. Enzyme assays were performed by monitoring emission at 485 nm.
After peptide characterization, emission spectra were obtained for unphosphorylated and phosphorylated peptides under appropriate conditions. The spectra were generally acquired in the presence of 10 mM Mg^2+(although lower Mg^2+concentrations can and have been used as well) and either 0, 0.1 or 1 mM ATP in a preselected buffer (usually 20 mM HEPES, pH 7.4). Relying on the emission spectra the fold fluorescence differences were measured by dividing the fluorescence intensity of the phosphopeptide by the fluorescence intensity of its unphosphorylated counterpart at 485 nm. FIG. 2 depicts the fluorescence spectra of the phosphorylated and unphosphorylated peptides in the appropriate assay mixture: (A) emissions scans of PKCβI-1 (10 μM), 10 mM Mg(II), 3×; (B) emissions scans of PKCβI-1 (10 μM), 10 mM Mg(II), 0 mM ATP, 3×.; (C) fluorescence difference for PKCβI-1 (10 μM), 10 mM Mg(II), 3×; (D) fluorescence increase for PKCβI-1 (10 μM) at 10 mM Mg (II).

PKCζ = biological target: T1, PKCζ (Homo sapiens, UniProt Q05513); assay: Cross-reactivity of PKCα-S10 with PKC isozymes; format: biochemical; settings: peptide 1 μM, isozyme 2 ng
T1 sequence (Q05513 1-592): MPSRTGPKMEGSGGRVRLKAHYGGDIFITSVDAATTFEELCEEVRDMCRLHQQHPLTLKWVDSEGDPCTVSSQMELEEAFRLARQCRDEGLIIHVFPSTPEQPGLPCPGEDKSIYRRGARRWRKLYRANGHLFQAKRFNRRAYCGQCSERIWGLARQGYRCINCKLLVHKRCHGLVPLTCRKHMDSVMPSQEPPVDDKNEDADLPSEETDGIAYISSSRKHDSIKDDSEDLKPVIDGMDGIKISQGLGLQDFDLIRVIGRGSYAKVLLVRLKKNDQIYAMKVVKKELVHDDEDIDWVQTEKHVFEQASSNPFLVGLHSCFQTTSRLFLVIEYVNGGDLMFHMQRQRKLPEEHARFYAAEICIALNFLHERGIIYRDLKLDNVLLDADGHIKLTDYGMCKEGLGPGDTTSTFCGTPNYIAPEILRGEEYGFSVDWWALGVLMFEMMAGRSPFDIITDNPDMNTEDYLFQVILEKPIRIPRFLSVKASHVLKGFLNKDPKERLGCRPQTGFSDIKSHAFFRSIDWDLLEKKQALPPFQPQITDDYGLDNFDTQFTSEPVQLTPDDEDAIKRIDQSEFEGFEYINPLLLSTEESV
Experimental: (§1) With the kinetic parameters at hand it is possible to test the cross-reactivity of PKCα-S10 with PKC isozymes. In 12 separate reactions PKCα-S10 (1 μM) is subjected to phosphorylation with PKCα, PKCβI, PKCβII, PKCγ, PKCδ, PKCε, PKCζ, PKCη, PKCθ, PKCι, PKCμ and PKCν (2 ng).

PKCθ = PKCθ (Homo sapiens, UniProt Q04759); assay: Cross-reactivity of PKCα-S10 with PKC isozymes; format: biochemical; settings: peptide 1 μM, isozyme 2 ng
Experimental: as §1

PKCν = biological target: T2, PKCν (Homo sapiens, UniProt O94806); assay: Cross-reactivity of PKCα-S10 with PKC isozymes; format: biochemical; settings: peptide 1 μM, isozyme 2 ng
T2 sequence (O94806 1-890): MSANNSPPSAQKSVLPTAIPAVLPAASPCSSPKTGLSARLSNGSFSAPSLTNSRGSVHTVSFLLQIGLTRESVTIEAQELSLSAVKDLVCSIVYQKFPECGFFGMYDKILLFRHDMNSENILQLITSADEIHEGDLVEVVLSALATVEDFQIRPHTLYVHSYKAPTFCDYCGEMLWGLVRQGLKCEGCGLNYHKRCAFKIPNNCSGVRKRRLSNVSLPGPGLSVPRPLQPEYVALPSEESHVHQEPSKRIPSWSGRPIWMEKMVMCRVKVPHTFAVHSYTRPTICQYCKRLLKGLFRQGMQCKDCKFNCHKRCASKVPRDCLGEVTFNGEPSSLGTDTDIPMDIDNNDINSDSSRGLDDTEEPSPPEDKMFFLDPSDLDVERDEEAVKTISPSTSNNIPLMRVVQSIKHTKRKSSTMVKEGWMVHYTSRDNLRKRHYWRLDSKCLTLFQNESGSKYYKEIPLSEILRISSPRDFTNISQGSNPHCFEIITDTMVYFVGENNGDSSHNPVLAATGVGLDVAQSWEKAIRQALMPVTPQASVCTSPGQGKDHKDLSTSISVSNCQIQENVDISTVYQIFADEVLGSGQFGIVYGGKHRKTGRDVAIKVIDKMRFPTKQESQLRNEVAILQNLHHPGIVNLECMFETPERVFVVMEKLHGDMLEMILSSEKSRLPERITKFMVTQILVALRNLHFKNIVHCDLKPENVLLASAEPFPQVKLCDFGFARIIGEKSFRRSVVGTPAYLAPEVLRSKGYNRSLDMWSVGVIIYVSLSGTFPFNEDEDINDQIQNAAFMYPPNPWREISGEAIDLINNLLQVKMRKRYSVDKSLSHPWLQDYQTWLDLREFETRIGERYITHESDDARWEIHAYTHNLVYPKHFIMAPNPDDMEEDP
Experimental: as §1

Sequence of PKCθ (Q04759 whole entry): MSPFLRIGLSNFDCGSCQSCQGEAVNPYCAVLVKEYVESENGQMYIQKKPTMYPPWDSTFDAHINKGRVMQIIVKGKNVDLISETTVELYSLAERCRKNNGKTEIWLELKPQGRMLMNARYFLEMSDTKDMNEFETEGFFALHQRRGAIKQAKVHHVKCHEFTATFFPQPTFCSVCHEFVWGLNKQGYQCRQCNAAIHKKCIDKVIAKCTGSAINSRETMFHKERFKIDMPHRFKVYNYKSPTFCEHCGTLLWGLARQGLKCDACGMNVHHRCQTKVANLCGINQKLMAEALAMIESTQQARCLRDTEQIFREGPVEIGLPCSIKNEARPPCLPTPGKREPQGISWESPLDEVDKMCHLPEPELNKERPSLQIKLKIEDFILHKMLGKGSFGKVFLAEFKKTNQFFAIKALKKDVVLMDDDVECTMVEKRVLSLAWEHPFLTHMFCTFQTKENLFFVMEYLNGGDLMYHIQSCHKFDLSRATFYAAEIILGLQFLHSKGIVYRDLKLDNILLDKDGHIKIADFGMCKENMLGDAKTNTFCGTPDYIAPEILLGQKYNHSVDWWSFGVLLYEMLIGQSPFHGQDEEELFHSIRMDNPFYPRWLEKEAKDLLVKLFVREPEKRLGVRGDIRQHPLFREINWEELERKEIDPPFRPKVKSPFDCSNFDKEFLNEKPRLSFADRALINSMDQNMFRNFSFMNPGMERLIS

activity of isozyme on peptide (PKCζ): very little activity
activity of isozyme on peptide compared with PKCα (PKCθ): slightly more active than PKCα
activity of isozyme on peptide (PKCν): no activity
Substance: Ac-RRR-C(Sox)-ASFRRKA-CONH2 [PKCα-S10(P10), Sox chemosensor with extended recognition domain for PKCα]
Fluorescence Increase [1]: 3.9 x
